The chains are these.
T1: mouse SIRPα D1-Fc (mouse, UniProt P97797 32-150, limits assumed)
T1 construct: domain: D1
T1 sequence (looked up): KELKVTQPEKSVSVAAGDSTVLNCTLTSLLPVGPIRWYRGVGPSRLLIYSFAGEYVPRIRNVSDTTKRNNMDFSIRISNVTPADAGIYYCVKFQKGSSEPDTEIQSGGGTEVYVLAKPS

T2: mouse SIRPα on cells (mouse, UniProt P97797 32-513)
T2 construct: whole, on cells
T2 sequence (looked up): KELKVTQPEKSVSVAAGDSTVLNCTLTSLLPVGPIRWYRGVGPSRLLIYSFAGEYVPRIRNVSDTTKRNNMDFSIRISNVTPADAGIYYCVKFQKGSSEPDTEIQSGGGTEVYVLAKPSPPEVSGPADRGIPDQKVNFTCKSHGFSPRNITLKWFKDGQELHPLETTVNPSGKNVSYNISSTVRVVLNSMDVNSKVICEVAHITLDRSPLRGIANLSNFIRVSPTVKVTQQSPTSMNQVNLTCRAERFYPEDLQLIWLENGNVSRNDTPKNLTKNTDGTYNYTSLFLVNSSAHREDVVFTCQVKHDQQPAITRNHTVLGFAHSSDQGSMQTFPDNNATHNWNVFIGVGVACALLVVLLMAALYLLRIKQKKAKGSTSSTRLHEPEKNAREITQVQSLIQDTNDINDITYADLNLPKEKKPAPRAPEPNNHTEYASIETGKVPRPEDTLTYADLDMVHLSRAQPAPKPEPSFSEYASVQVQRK

T3: mouse SIRPβ1 on CHO cells (mouse)
T3 construct: Whole entry
T3 chain: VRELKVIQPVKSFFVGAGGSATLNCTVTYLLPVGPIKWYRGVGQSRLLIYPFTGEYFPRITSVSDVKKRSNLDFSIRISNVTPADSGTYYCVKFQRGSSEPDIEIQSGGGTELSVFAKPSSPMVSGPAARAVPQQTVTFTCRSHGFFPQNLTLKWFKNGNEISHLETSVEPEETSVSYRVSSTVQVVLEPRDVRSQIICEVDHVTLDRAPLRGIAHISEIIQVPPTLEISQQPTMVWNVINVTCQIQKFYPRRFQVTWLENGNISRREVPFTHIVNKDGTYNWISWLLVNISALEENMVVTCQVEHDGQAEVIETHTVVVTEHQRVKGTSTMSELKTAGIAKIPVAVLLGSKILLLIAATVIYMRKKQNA

B1: SB-46 (antibody, V domains shown)
VH: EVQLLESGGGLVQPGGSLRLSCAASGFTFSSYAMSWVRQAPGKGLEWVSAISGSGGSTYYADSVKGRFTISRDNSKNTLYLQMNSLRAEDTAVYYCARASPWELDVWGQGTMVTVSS
VL: EIVLTQSPGTLSLSPGERATLSCRASQSVRSSYLAWYQQKPGQAPRLLIYGASSRATGIPDRFSGSGSGTDFTLTISRLEPEDFAVYYCQQLYSSPYTFGGGTKVEIK
notes: IgG
B2: SB-48 (antibody, V domains shown)
VH: QVQLVESGGGVVQPGRSLRLSCAASGFTFSSYGMHWVRQAPGKGLEWVAVISYDGSNKYYADSVKGRFTISRDNSKNTLYLQMNSLRAEDTAVYYCARDGTIAAAGWPPEYFQHWGQGTLVTVSS
VL: DIQMTQSPSSVSASVGDRVTITCRASQGIDSWLAWYQQKPGKAPKLLIYAASSLQSGVPSRFSGSGSGTDFTLTISSLQPEDFATYYCQQASNFPITFGGGTKVEIK
notes: IgG
B3: SB-45 (antibody, V domains shown)
VH: QVQLQESGPGLVKPSETLSLTCAVSGYSISSGYYWAWIRQPPGKGLEWIGSIYHSGSTYYNPSLKSRVTISVDTSKNQFSLKLSSVTAADTAVYYCARDLSRGYAVSGMDVWGQGTTVTVSS
VL: VLTQSPGTLSLSPGERATLSCRASQSVSSSFLAWYQQKPGQAPRLLIYGASSRATGIPDRFSGSGSGTDFTLTISRLEPEDFAVYYCQQVVSVPTFGGGTKVEIK
notes: IgG
B4: SB-43 (antibody, V domains shown)
VH: QVQLQESGPGLVKPSETLSLTCAVSGYSISSGYYWAWIRQPPGKGLEWIGSIYHSGSTYYNPSLKSRVTISVDTSKNQFSLKLSSVTAADTAVYYCARDAPGYPMLGMDVWGQGTTVSVSS
VL: EIVLTQSPATLSLSPGERATLSCRASQSVSSYLAWYQQKPGQAPRLLIYDASKRATGIPARFSGSGSGTDFTLTISSLEPEDFAVYYCQQRFDFPITFGGGTKVEIK
notes: IgG
B5: SB-44 (antibody, V domains shown)
VH: EVQLVESGGGLVQPGGSLRLSCAASGFTVSSNYMSWVRQAPGKGLEWVSVIYSGGDTYYADSVKGRFTISRDNSKNTLYLQMNSLRAEDTAVYYCAREGSSFWSGSAVSYYGMDVWGQGTTVTVSS
VL: DIQMTQSPSTLSASVGDRVTITCRASQSIGSWLAWYQQKPGKAPKLLIYKASSLESGVPSRFSGSGSGTEFTLTISSLQPDDFATYYCQEYGSYRTFGGGTKVEIK
notes: IgG
B6: SB-47 (antibody, V domains shown)
VH: QLQLQESGPGLVKPSETLSLTCTVSGGSISSSSYAWGWIRQPPGKGLEWIGSIYYSGSTYYNPSLKSRVTISVDTSKNQFSLKLSSVTAADTAVYYCARDLGHYDYWSGSRDYYYGMDVWGQGTTVTVSS
VL: DIQMTQSPSSLSASVGDRVTITCQASQDISNYLNWYQQKPGKAPKLLIYDASNLETGVPSRFSGSGSGTDFTFTISSLQPEDIATYYCQQADYFPITFGGGTKVEIK
notes: IgG
B7: SB-1-2 Fab (Fab, V domains shown)
VH: QVQLVESGGGVVQPGRSLRLSCAASGFTFGSFGMNWVRQAPGKGLEWVSAITASGGSTFYADSVKGRFTISRDNSKNTLYLQMNSLRAEDTAVYYCAKDFTEVVGWLGMDVWGQGTTVTVSS
VL: B1 VL with L4M, R30S, Q91L, Y93G, Y97R
notes: Fab by papain digestion
B8: SB-40-18 Fab (Fab, V domains shown)
VH: QVQLVQSGAEVKKPGASVKVSCKASGYTFTSYYMAWVRQAPGQRLEWMGWINPAVGATIYSQKFQGRVTITRDTSASTAYMELSSLRSEDTAVYYCARDTGEYSYSPHGMDVWGQGTTVTVSS
VL: EIVLTQSPATLSLSPGERATLSCRASQSVSSYLAWYQQKPGQAPRLLIYDSSNRATGIPARFSGSGSGTDFTLTISSLEPEDFAVYYCQQRDEHPPWTFGGGTKVEIK
notes: Fab by papain digestion
B9: SB-40-20 Fab (Fab, V domains shown)
VH: QVQLVQSGAEVKKPGASVKVSCKASGYTFTSFYISWVRQAPGQGLEWMGIINPSSGHTNYAQKLQGRVTMTTDTSTSTAYMELSSLRSEDTAVYYCARDTGEYSYSPHGMDVWGQGTTVTVSS
VL: B8 VL
notes: Fab by papain digestion
B10: SB-40-19 Fab (Fab, V domains shown)
VH: B9 VH with F32Y, I34M, S35V, H57A, L64F, S84R, E89D
VL: B8 VL
notes: Fab by papain digestion
B11: SB-40-21 Fab (Fab, V domains shown)
VH: B9 VH with F32Y, I34M, S35V, H57D, L64F, T72R, T76I, S85R, E89D
VL: B8 VL
notes: Fab by papain digestion

Numbering of substitutions follows the chain as printed.
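Throughout, for FOB: antibodies tested at 1 µg/ml for 30 min on ice against receptor-expressing cells, detected with a PE-labelled secondary antibody, read as mean fluorescence intensity relative to background.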

T7 sequence (O00241 30-398): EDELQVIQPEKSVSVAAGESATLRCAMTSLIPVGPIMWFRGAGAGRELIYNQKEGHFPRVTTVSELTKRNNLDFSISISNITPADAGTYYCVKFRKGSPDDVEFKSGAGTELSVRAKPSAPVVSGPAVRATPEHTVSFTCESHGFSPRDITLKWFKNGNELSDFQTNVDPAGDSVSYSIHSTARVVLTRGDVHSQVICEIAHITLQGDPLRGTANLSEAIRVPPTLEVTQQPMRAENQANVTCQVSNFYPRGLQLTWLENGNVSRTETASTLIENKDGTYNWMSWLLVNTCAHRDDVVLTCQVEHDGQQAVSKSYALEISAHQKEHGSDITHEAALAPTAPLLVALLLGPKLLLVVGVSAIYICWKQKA
T4 sequence (O00241 30-148 limits assumed): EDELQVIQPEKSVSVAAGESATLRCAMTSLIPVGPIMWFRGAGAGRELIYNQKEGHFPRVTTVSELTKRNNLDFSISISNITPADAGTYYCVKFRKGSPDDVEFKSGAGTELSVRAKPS

One test addresses T4, human SIRPβ1 domain 1 (D1) Fc fusion (human, UniProt O00241 30-148).
T4 construct: Made in HEK293/T cells with a heterologous signal peptide; also called Human SIRPβ1 D1-Fc; Human SIRPβ1-Fc; not shown: C-terminal human IgG1 Fc
The test can be described thus: Octet, IgG avid.
For orientation: Kd means the constant that tells how readily two partners part at equilibrium. The low end stands for a tighter complex, the high end for a looser complex. For B1, the Kd was 20 nM.

Regarding B2, the affinity, expressed as Kd, was 27.7 nM.

B3 displayed a Kd of 13.9 nM.

B4 came in with a Kd of 12.3 nM.

For the molecule B5, the Kd worked out at 18.9 nM.

B6 displayed a Kd of 14.4 nM.

A further test concerns the target T1, mouse SIRPα D1-Fc. The experiment in a line: Octet. (BLI is a label-free optical method that tracks binding on a fibre tip over time.)
Turning to B1, the binding result is on record as “no binding (tested: 100 nM)”.

With B2, the binding result was “no binding (tested: 100 nM)”.

In the case of B3, the binding result is “no binding (tested: 100 nM)”.

In the case of B4, the binding result is “no binding (tested: 100 nM)”.

As to B5, the binding result was “no binding (tested: 100 nM)”.

In the case of B6, the binding result is “no binding (tested: 100 nM)”.

The next test has as its target T5, human SIRPα domain 1 (D1) Fc fusion (human, UniProt P78324 32-149).
T5 construct: also called human SIRPα D1-Fc; Human SIRPα Fc; not shown: C-terminal human IgG1 Fc
The test can be described thus: Octet.
B1: the binding result is on record as “no binding (tested: 100 nM)”.

Consider B2, for which the binding result was “no binding (tested: 100 nM)”.

For the molecule B3, the binding result is listed as “no binding (tested: 100 nM)”.

For the molecule B4, the binding result is “no binding (tested: 100 nM)”.

For the molecule B5, the binding result was “no binding (tested: 100 nM)”.

As to B6, the binding result is “no binding (tested: 100 nM)”.

The target of another test is T4, human SIRPβ1 domain 1 (D1) Fc fusion. The experiment in a line: Octet, Fab monovalent.
As to B7, the Kd was determined as 37.8 nM.

As to B8, the affinity, expressed as Kd, was 18.1 nM.

Consider B9, for which binding was characterised by a dissociation constant (Kd) of 9.41 nM.

In turn, B10 showed a Kd of 44.8 nM.

B11: the Kd is 40.4 nM.

Another test deals with T2, mouse SIRPα on cells. The test can be described thus: flow cytometry. In general terms: Flow cytometry measures light scatter and fluorescence of single cells or particles in a stream.
B1 showed an FOB of 1.4 fold over background.

With B2, the FOB amounted to 2.4 fold over background.

With B3, the FOB amounted to 1.2 fold over background.

The molecule B4 registered an FOB of 1.6 fold over background.

Molecule B5 yielded an FOB of 1.2 fold over background.

In turn, B6 displayed an FOB of 1.7 fold over background.

A further test has as its target T6, human SIRPα on cells (human, UniProt P78324 31-504).
T6 construct: Whole entry
The test can be described thus: flow cytometry.
As for B1, the FOB was 2.1 fold over background.

For B2, the FOB is 2.1 fold over background.

For the molecule B3, the FOB amounted to 2.5 fold over background.

The molecule B4 came in with an FOB of 2.3 fold over background.

In the case of B5, the FOB was found to be 2.9 fold over background.

Regarding B6, the FOB worked out at 2.1 fold over background.

The target of the next test is T3, mouse SIRPβ1 on CHO cells. The experiment in a line: flow cytometry.
Regarding B1, the FOB is 1.3 fold over background.

As for B2, the FOB was found to be 1.1 fold over background.

Take B3: the FOB is 1.4 fold over background.

For B4, the FOB amounted to 1.1 fold over background.

Take B5: the FOB stood at 1.5 fold over background.

On to B6, for which the FOB amounted to 1.3 fold over background.

The next test has as its target T7, human SIRPβ1 isoform 1 on cells (human, UniProt O00241 30-398).
T7 construct: On CHO cells (low level), on BWZ/BW5147.G.1.4 cells (reporter cells co-express human DAP12) or on primary human myeloid cells; also called huSIRPβ1; BWZ-huSIRPβ1
The test can be described thus: flow cytometry.
Take B1: the FOB turned out to be 5.3 fold over background.

In the case of B2, the FOB was determined as 1.7 fold over background.

B3: the FOB stood at 8.5 fold over background.

For the molecule B4, the FOB came to 2.8 fold over background.

For the molecule B5, the FOB is 2.8 fold over background.

Take B6: the FOB was 1.6 fold over background.

For the next test, the target named is T2, mouse SIRPα on cells. The experiment in a line: flow cytometry. The source holds these as a separate data set.
Turning to B1, the binding result was “no binding (tested: 1 ug/ml)”.

Consider B2, for which the binding result was “no binding (tested: 1 ug/ml)”.

For the molecule B3, the binding result is given as “no binding (tested: 1 ug/ml)”.

For the molecule B4, the binding result was “no binding (tested: 1 ug/ml)”.

As for B5, the binding result was “no binding (tested: 1 ug/ml)”.

On to B6, for which the binding result is listed as “no binding (tested: 1 ug/ml)”.

For another test, the target named is T6, human SIRPα on cells. The test can be described thus: flow cytometry. The source holds these as a separate data set.
With B1, the binding result is recorded as “no binding (tested: 1 ug/ml)”.

Take B2: the binding result is given as “no binding (tested: 1 ug/ml)”.

As to B3, the binding result is recorded as “no binding (tested: 1 ug/ml)”.

On to B4, for which the binding result is given as “no binding (tested: 1 ug/ml)”.

Consider B5, for which the binding result is “no binding (tested: 1 ug/ml)”.

Consider B6, for which the binding result is listed as “no binding (tested: 1 ug/ml)”.

The target in another test is T3, mouse SIRPβ1 on CHO cells. The experiment in a line: flow cytometry. This is another data set of the same source.
For B1, the binding result is “no binding (tested: 1 ug/ml)”.

Consider B2, for which the binding result is “no binding (tested: 1 ug/ml)”.

For the molecule B3, the binding result is “no binding (tested: 1 ug/ml)”.

As for B4, the binding result is given as “no binding (tested: 1 ug/ml)”.

As to B5, the binding result is given as “no binding (tested: 1 ug/ml)”.

Regarding B6, the binding result is reported as “no binding (tested: 1 ug/ml)”.

(Values after US20250026827A1 (Alector, published 2025).)
